From patent US20080125498A1, “TREATMENT OF NEURODEGENERATIVE DISEASES AND CONDITIONS USING PAR1 ANTAGONISTS” (priority 2001, published 2008) come the findings set out here.

What all share (test): cell-based or functional assay
For assay [1], the target named is protease-activated receptor 1 (PAR1), rat, endogenous in hippocampal neurons (rat) (UniProt P26824).
Assay [2] deals with recombinant NR1 subunit in NR1/NR2A and NR1/NR2B NMDA receptors expressed in Xenopus oocytes.
A further assay concerns the target alpha-thrombin.

protease-activated receptor 1 (PAR1), rat, endogenous in hippocampal neurons (rat), sequence (P26824 46-432): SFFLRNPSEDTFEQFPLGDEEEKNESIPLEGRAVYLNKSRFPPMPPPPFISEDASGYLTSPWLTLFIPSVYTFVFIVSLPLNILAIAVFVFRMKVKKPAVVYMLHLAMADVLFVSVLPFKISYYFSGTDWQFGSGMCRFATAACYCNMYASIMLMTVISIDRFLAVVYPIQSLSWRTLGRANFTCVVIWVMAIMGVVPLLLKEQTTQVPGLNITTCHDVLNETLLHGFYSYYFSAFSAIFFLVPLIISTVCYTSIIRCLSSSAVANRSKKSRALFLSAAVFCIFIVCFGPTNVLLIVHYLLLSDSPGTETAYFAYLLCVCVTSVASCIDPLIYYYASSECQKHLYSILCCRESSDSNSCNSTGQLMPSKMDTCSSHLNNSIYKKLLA

As to alpha-thrombin (enzyme), in assay [1], the average peak potentiation of NMDA responses in CA1 pyramidal cells at -40 mV in 1.4 mM Mg2+ was determined as 1.48 fold, the average peak potentiation of NMDA responses in CA1 pyramidal cells at -70 mV in 1.4 mM Mg2+ came to 2.1 fold and the peak potentiation of NMDA responses at -70 mV in CA1 pyramidal neurons worked out at 2.07 fold. The NMDA receptor current response amplitude in oocytes after 300-1000 nM thrombin for 60 minutes in assay [2] stood at 42%.

Turning to hirudin, the potentiation by thrombin of NMDA responses in the presence of hirudin with alpha-thrombin was 0.96 fold.
